Assay [1] concerns the target T1, hFZD8 CRD-Fc (human, UniProt Q9H461 28-158, limits assumed).
T1 construct: domain: CRD; bought (R&D Systems); not shown: Fc part
T1 sequence (looked up): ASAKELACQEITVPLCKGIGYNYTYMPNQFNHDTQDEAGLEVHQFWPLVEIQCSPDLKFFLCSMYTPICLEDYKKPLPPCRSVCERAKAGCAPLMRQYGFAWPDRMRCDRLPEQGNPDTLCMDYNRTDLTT
As to the kind of experiment: spot phage ELISA.

In assay [2] the target is T2, hFZD7 CRD-Fc (human, UniProt O75084 33-185). Kind of assay: spot phage ELISA. For orientation: An ELISA detects its analyte on a solid surface through an enzyme-linked reagent.
Assay [3] addresses T3, FZD7 receptor of HEK293-TB cells (human, UniProt O75084 33-574). As to the kind of experiment: cell-based or functional assay.
The target of assay [4] is T3, FZD7 receptor of HEK293-TB cells. Kind of assay: cell-based or functional assay. This is another data set of the same source.
Assay [5] has the same target. Kind of assay: cell-based or functional assay. This is another data set of the same source.
The target in a further assay is T4, hsFRP-4 (human, UniProt Q6FHJ7 22-346, limits assumed).
T4 construct: bought (R&D Systems); also called human sFRP4
T4 sequence (looked up): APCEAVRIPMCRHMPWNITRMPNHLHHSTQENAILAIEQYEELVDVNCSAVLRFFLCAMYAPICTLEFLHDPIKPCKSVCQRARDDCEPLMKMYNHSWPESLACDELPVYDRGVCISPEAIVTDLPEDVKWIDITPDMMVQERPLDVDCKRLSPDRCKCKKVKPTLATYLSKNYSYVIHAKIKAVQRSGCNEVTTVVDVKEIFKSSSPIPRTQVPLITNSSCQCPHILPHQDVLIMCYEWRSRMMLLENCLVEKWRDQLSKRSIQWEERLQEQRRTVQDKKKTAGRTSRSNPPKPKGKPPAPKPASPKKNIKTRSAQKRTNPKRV
Kind of assay: fluorescence size-exclusion chromatography (FSEC). (In general: Size exclusion chromatography separates by hydrodynamic size, large species first.)

A further assay addresses T5, hsFRP2 (human, UniProt Q96HF1 25-295).
T5 construct: bought (R&D Systems); also called human sFRP2
T5 sequence (looked up): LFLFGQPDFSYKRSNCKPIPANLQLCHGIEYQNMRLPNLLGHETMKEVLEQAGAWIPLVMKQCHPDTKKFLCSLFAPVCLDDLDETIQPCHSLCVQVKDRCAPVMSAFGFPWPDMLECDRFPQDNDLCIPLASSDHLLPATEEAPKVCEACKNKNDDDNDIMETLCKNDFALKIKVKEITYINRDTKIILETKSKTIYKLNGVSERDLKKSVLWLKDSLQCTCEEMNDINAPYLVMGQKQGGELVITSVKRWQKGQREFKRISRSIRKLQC
As to the kind of experiment: fluorescence size-exclusion chromatography (FSEC).

The target in a further assay is T6, hsFRP-5 (human, UniProt Q5T4F7 30-317).
T6 construct: bought (R&D Systems); also called human sFRP5
T6 sequence (looked up): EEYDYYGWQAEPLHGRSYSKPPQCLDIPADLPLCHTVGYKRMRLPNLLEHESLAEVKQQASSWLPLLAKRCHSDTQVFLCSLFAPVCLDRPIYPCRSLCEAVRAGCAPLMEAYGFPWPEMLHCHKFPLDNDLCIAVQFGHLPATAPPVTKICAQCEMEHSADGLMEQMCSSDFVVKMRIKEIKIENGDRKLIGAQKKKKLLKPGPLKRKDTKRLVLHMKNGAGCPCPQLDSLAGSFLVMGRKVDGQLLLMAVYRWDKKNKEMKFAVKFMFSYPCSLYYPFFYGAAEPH
Kind of assay: fluorescence size-exclusion chromatography (FSEC).

The target in another assay is T7, hsFRP1 (human, UniProt Q8N474 32-314).
T7 construct: bought (R&D Systems); also called human sFRP1
T7 sequence (looked up): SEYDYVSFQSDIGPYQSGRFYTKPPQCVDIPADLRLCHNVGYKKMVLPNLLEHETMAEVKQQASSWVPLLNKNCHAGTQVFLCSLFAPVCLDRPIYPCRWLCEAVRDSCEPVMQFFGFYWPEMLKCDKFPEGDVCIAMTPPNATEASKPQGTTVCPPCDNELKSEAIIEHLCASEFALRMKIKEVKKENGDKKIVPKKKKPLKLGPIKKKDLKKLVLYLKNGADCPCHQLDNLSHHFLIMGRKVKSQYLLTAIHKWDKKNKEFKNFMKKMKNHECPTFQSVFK
Kind of assay: fluorescence size-exclusion chromatography (FSEC).

The target of another assay is T8, hsFRP-3 (human, UniProt Q92765 33-325).
T8 construct: bought (R&D Systems); also called human sFRP3
T8 sequence (looked up): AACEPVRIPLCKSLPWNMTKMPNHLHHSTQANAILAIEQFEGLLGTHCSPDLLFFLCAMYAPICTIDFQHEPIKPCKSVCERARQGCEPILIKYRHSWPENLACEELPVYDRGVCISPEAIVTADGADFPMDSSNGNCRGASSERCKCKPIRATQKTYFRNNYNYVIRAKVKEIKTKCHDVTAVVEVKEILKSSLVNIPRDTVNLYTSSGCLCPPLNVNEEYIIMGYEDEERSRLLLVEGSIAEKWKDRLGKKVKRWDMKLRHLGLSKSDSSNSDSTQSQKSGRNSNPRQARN
As to the kind of experiment: fluorescence size-exclusion chromatography (FSEC).

In a further assay the target is T9, hFZD1 CRD-Fc (human, UniProt Q9UP38 70-250, limits assumed).
T9 construct: domain: CRD; bought (R&D Systems); not shown: Fc part
T9 sequence (Q9UP38 70-250 limits assumed): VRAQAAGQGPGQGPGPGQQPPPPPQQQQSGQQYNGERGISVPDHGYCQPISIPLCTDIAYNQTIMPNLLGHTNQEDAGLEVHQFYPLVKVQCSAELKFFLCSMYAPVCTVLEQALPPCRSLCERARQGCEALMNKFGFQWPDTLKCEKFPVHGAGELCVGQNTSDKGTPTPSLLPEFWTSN
Kind of assay: fluorescence titration, 50 nM labelled peptide vs FZD CRD-Fc dilutions (Monolith NT.115).

A further assay has as its target mFZD7 CRD-Fc (mouse, UniProt Q61090 33-185). Described as above.
The target in the next assay is T10, mFZD2 CRD-Fc (mouse, UniProt Q9JIP6 29-178, limits assumed).
T10 construct: domain: CRD; bought (R&D Systems); not shown: Fc part
The description is as above.

Assay [6] concerns the target T2, hFZD7 CRD-Fc. Described as above.
A further assay deals with T11, hFZD10 CRD-Fc (human, UniProt Q9ULW2 21-161, limits assumed).
T11 construct: domain: CRD; bought (R&D Systems); not shown: Fc part
T11 sequence (looked up): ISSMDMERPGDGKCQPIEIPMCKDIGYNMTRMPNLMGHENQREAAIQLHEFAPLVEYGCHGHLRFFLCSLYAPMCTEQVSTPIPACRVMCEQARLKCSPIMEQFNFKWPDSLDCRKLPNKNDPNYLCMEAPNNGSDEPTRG
As to the kind of experiment: fluorescence titration, 50 nM labelled peptide vs FZD CRD-Fc dilutions (Monolith NT.115); NC = no change.

A further assay deals with T12, hFZD4 CRD-Fc (human, UniProt Q9ULV1 37-180, limits assumed).
T12 construct: domain: CRD; bought (R&D Systems); not shown: Fc part
T12 sequence (looked up): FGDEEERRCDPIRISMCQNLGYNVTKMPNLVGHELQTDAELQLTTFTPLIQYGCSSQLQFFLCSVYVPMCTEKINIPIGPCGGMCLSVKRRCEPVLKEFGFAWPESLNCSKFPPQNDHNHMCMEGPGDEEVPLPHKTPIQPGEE
The description is as above.

The target of assay [7] is T1, hFZD8 CRD-Fc. The assay is described as above.
A further assay has as its target T13, mFZD9 CRD-Fc (mouse, UniProt Q9R216 24-176, limits assumed).
T13 construct: domain: CRD; bought (R&D Systems); not shown: Fc part
T13 sequence (looked up): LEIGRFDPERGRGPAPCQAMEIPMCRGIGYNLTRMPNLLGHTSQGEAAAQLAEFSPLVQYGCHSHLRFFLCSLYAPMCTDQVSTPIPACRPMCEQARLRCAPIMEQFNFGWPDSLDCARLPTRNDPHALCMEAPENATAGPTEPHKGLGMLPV
Described as above.

The next assay concerns the target T14, hFZD5 CRD-Fc (human, UniProt Q13467 27-167, limits assumed).
T14 construct: domain: CRD; bought (R&D Systems); not shown: Fc part
T14 sequence (looked up): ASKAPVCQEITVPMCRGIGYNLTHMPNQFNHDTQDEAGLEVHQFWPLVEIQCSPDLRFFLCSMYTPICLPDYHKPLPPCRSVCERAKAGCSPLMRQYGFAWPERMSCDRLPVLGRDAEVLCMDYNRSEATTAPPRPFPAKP
Described as above.

Ends that are not written are not given here.

Broadly, the EC50 is the concentration that produces a half-maximal response. Read a high EC50 as lower potency in that assay.

B1: SEQ ID NO 38 (peptide)
peptide: HLSDVFCSDWCDLVFW
modifications: not fully specified; cysteine pairing not given here
notes: cyclic peptide library
Regarding B1, the entries for the “signal:noise ratio” value with hFZD8 CRD-Fc [1] and with hFZD7 CRD-Fc [2] were 1.28 and 17.5, respectively.

B2: SEQ ID NO 32 (peptide)
peptide: SSDFSGCLSWCDLIFG
modifications: not fully specified; cysteine pairing not given here
notes: cyclic peptide library
Regarding B2, the “signal:noise ratio” value was found to be 1.39 in the assay with hFZD8 CRD-Fc [1] and 28.4 with hFZD7 CRD-Fc [2].

B3: SEQ ID NO 35 (peptide)
peptide: TSDFSWCLSWCDLIFW
modifications: not fully specified; cysteine pairing not given here
notes: cyclic peptide library
In the case of B3, the “signal:noise ratio” value came to 1.27 with hFZD8 CRD-Fc [1] and 28.4 in the assay with hFZD7 CRD-Fc [2].

B4: Fz7-21 (peptide)
peptide: Ac-LPSDDLEFWCHVMY-NH2
Consider B4, for which, in [3], the “IC50 (nM), TOPbrite reporter assay in HEK293-TB cells stimulated with mWnt3a (50 ng/mL)” value was found to be 465 nM and the “Reduction in fold potency vs. dimer” value was 42 fold. In addition, the “IC50 (µM), Wnt3a-mediated β-catenin signaling, TOPbrite reporter in HEK293-TB cells (50 ng/mL mWnt3a)” value in [4] was determined as 0.1 µM. Also, in assay [5], the “IC50, Wnt1-stimulated β-catenin signaling, HEK293-TB cells transfected with 5 ng plasmid (FIG. 2C)” value is 1.09 µM; the “IC50, Wnt1-stimulated β-catenin signaling, HEK293-TB cells transfected with 25 ng plasmid (FIG. 2C)” value was found to be 2.66 µM; the “IC50, Wnt3a-stimulated β-catenin signaling, HEK293-TB cells transfected with 5 ng pCDNA3.2-Wnt3a (FIG. 2B)” value was found to be 330 nM; the “IC50, Wnt3a-stimulated β-catenin signaling, HEK293-TB cells transfected with 25 ng pCDNA3.2-Wnt3a (FIG. 2B)” value stood at 419 nM. In [5], the “IC50, Wnt3a-stimulated β-catenin signaling, HEK293-TB cells, recombinant mWnt3a 50 ng/mL (FIG. 2A)” value stood at 93.7 nM.

B5: 5FAM-Fz7-21 (peptide)
peptide: LPSDDLEFWCHVMY-NH2
modifications: also: 5-carboxyfluorescein (5FAM) label, site not given here
notes: synthetic
Regarding B5, the binding result with hsFRP-4 is listed as “no binding (tested: 10 µM peptide, ~250 nM sFRP)”; in the assay with hsFRP2, “no binding (tested: 10 µM peptide, ~250 nM sFRP)”; with hsFRP-5 it was “no binding (tested: 10 µM peptide, ~250 nM sFRP)”; with hsFRP1, “no binding (tested: 10 µM peptide, ~250 nM sFRP)”; with hsFRP-3, “no binding (tested: 10 µM peptide, ~250 nM sFRP)”; with hFZD10 CRD-Fc, “no binding”. Moreover, the binding result with hFZD4 CRD-Fc, in the assay with hFZD8 CRD-Fc [7], in the assay with mFZD9 CRD-Fc and in the assay with hFZD5 CRD-Fc was “no binding” each time. Besides, the EC50 with hFZD1 CRD-Fc came out at 39 nM; with mFZD7 CRD-Fc it was 67 nM; with mFZD2 CRD-Fc, 60 nM; with hFZD7 CRD-Fc [6] it was 116 nM.

B6: SEQ ID NO 37 (peptide)
peptide: FDFCSVMPHFIYCPGD
modifications: not fully specified; cysteine pairing not given here
notes: cyclic peptide library
On to B6, for which the “signal:noise ratio” value with hFZD8 CRD-Fc [1] was found to be 1.12; in the assay with hFZD7 CRD-Fc [2], 27.5.

B7: SEQ ID NO 36 (peptide)
peptide: FDFCTVMPHFIYCPGD
modifications: not fully specified; cysteine pairing not given here
notes: cyclic peptide library
As for B7, the “signal:noise ratio” value with hFZD8 CRD-Fc [1] was 2.01; in the assay with hFZD7 CRD-Fc [2] it was 27.4.

B8: SEQ ID NO 33 (peptide)
peptide: FDFCSVMPQFIYCPGD
modifications: not fully specified; cysteine pairing not given here
notes: cyclic peptide library; also called Fz7-20
In the case of B8, the “signal:noise ratio” value was 2.1 with hFZD8 CRD-Fc [1] and 26 with hFZD7 CRD-Fc [2].

B9: Fz7-21N (peptide)
peptide: Ac-LPSDNLEFWCHVMY-NH2
For B9, in [4], the “IC50 (µM), Wnt3a-mediated β-catenin signaling, TOPbrite reporter in HEK293-TB cells (50 ng/mL mWnt3a)” value was 0.41 µM.

The record behind these values is patent publication US20190359653A1 (Genentech, published 2019).
